The test addresses T1, hK1 (human tissue kallikrein 1), recombinant (human, UniProt P06870 25-262).
T1 construct: Expressed in P. pastoris from KLK1 cDNA and purified; enzymatically active; also called KLK1; Recombinant (Pichia) Kallikrein
The experiment in a line: SPR. A general note: Surface plasmon resonance follows binding to a sensor surface in real time, without labels.

B1: M0094-D08 (Fab, V domains shown)
VH: EVQLLESGGGLVQPGGSLRLSCAASGFTFSHYLMVWVRQAPGKGLEWVSGIVPSGGYTMYADSVKGRFTISRDNSKNTLYLQMNSLRAEDTAVYYCTRASYSSFGLDYWGQGTLVTVSS
VL: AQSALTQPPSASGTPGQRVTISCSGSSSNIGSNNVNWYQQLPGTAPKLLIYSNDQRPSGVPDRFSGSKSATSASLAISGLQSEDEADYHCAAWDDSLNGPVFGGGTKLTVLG
As for B1, the Kd (in general, the constant that tells how readily two partners part at equilibrium) is 29.8 nM; the koff (as a rule, a measure of how fast the partners let go of each other) came out at 0.00707 s⁻¹; the kon – broadly, the rate constant with which the complex forms – amounted to 237000 M⁻¹ s⁻¹.

B2: M0096-D03 (Fab, V domains shown)
VH: EVQLLESGGGLVQPGGSLRLSCAASGFTFSHYWMVWVRQAPGKGLEWVSWIGPSGGGTVYADSVKGRFTISRDNSKNTLYLQMNSLRAEDTAVYYCARGNGGFDSWGRGTLVTVSS
VL: AQSELTQPRSVSGSPGQSVTISCTGTTRDVGAYKYVSWYQQYPGKAPKLMLSDVSKRPSGVPDRFSGSKSGNTASLTISGLQSEDEADYYCCSFAGSYTWIFGGGTKVTVLG
For the molecule B2, the Kd was found to be 28.1 nM, the koff came to 0.00945 s⁻¹ and the on-rate constant (kon) amounted to 337000 M⁻¹ s⁻¹.

B3: M0132-C01 (Fab, V domains shown)
VH: EVQLLESGGGLVQPGGSLRLSCAASGFTFSRYLMWWVRQAPGKGLEWVSVIGPSGGWTRYADSVKGRFTISRDNSKNTLYLQMNSLRAEDTAVYYCARHPGDYWGQGTLVTVSS
VL: AQSALTQPRSVSGSPGQSVTISCTGTGSNIDGYNYVSWYQQYPGNAPKLIIYDVGKRPSGVPNRFSGSKSGNTASLTISGLQAEDEADYYCCSYAGSYSYVFGVGTKVTVLG
Take B3: the Kd was 25.6 nM, the koff was 0.0035 s⁻¹ and the kon is 137000 M⁻¹ s⁻¹.

B4: M0106-C06 (Fab, V domains shown)
VH: EVQLLESGGGLVQPGGSLRLSCAASGFTFSHYTMQWVRQAPGKGLEWVSSIYPSGGATKYADSVKGRFTISRDNSKNTLYLQMNSLRAEDTAMYYCARSGYYYGLDVWGQGTTVTVSS
VL: DIQMTQSPATLSASVGDRVTITCRASQSVSRWLAWYQQKPGKAPKLLIYKASTLESGVPSRFSGSGSGTEFTLTISSLQPDDFATYYCQQYGAFGQGTKVEIRR
In the case of B4, the Kd was found to be 22.6 nM, the koff came to 0.0142 s⁻¹ and the kon worked out at 628000 M⁻¹ s⁻¹.

B5: M0131-G06 (Fab, V domains shown)
VH: EVQLLESGGGLVQPGGSLRLSCAASGFTFSSYAMTWVRQAPGKGLEWVSSISSSGGDTAYADSVKGRFTISRDNSKNTLYLQMNSLRAEDTAVYYCATERHYIWGSYRYSWFDPWGQGTLVTVSS
VL: AQYELTQAPSASGTPGQRVTISCSGSRSNIGTNPVNWYQHVPGTAPKLLILVNNQRPSGVPDRFSGSKSGASASLAISGLQSEDEAEYYCATWDGSLNGPVFGGGTKLTVLR
In the case of B5, the Kd worked out at 29.7 nM, the koff stood at 0.00209 s⁻¹ and the kon was found to be 70300 M⁻¹ s⁻¹.

B6: M0124-H10 (Fab, V domains shown)
VH: EVQLLESGGGLVQPGGSLRLSCAASGFTFSNYFMNWVRQAPGKGLEWVSSIGSSGGYTRYADSVKGRFTISRDNSKNTLYLQMNSLRAEDTAVYYCARVGVWYGMDVWGQGTTVTVSS
VL: DIQMTQSPATLSLSAGERATLSCRASQSVNIDVGWYQQKPGQAPRLLIYDASKRATGIPTRFSGSGSGTDFTLTIANLEPEDFAVYYCQQRARWLTFGGGTRLEIKR
As to B6, the Kd was found to be 20.3 nM, the koff was found to be 0.0012 s⁻¹ and the kon came out at 59100 M⁻¹ s⁻¹.

B7: M0093-C10 (Fab, V domains shown)
VH: EVQLLESGGGLVQPGGSLRLSCAASGFTFSRYTMEWVRQAPGKGLEWVSVIRPSGGTTMYADSVKGRFTISRDNSKNTLYLQMNSLRAEDMAVYYCARVGVWYGMDVWGQGTTVTVSS
VL: DIQITQSPSSLSASVGDRVTITCRASQGISNYLAWYQQKPGKVPKLLIYAASTLQSGVPSRFSGSGSGTDFTLTISSLQPEDFATYYCEQLNSFPHAFGQGTKVEIKR
Take B7: the Kd was 22.6 nM, the koff was 0.00752 s⁻¹ and the kon came to 333000 M⁻¹ s⁻¹.

B8: M0092-G06 (Fab, V domains shown)
VH: EVQLLESGGGLVQPGGSLRLSCAASGFTFSHYGMNWVRQAPGKGLEWVSSIWSSGGYTTYADSVKGRFTISRDNSKNTLYLQMNSLRAEDTAVYYCARVGIWYSMDVWGQGTTVTVSS
VL: AQSELTQPRSVSGSPGQSVTISCTGTSGEVANYNYVSWYHQDPGLVPKLKIYDVSRRPSGVPDRFSGAKSGDTASLTISGLQAEDEGDYYCASYVGNDKLVFGGGTKLTVLG
As to B8, the Kd is 30.9 nM, the koff was 0.00663 s⁻¹ and the kon was 215000 M⁻¹ s⁻¹.

B9: M0102-H02 (Fab, V domains shown)
VH: EVQLLESGGGLVQPGGSLRLSCAASGFTFSMYRMFWVRQAPGKGLEWVSVIGPSGGQTAYADSVKGRFTISRDNSKNTLYLQMNSLRAEDTAVYYCARVGVWYGMDVWGQGTTVTVSS
VL: DIQMTQSPATLSLSPGERAALSCRASQSVSNFLAWYQQKPGQAPRLLIYGASNRATDIPARFSGSGSGTDFTLTISSLEPEDFATYYCQQANSFPLTFGGGTKVEIKR
Turning to B9, the Kd amounted to 30.8 nM, the koff came out at 0.0105 s⁻¹ and the kon came to 340000 M⁻¹ s⁻¹.

B10: M0113-E03 (Fab, V domains shown)
VH: EVQLLESGGGLVQPGGSLRLSCAASGFTFSRYTMFWVRQAPGKGLEWVSGIYPSGGKTIYADSVKGRFTISRDNSKNTLYLQMNSLRAEDTAVYYCATGGVFGVVDYWGQGTLVTVSS
VL: DIQMTQSPSSLSASVGDRVTITCRASQSINSYLNWYQQKPGKAPNLLIYAASSLQNGVPSRFSGSGSGTDFTLTISSLQPEDFAAYYCQQSYSTPLTFGGGTKVEIKR
With B10, the Kd is 31.5 nM and the koff came to 500 s⁻¹.

B11: M0102-G11 (Fab, V domains shown)
VH: EVQLLESGGGLVQPGGSLRLSCAASGFTFSRYMMEWVRQAPGKGLEWVSGISPSGGTTKYADSVKGRFTISRDNSKNTLYLQMNSLRAEDTAVYYCTRGGYNNYYYALDVWGQGTTVTVSS
VL: DIQMTQSPDTLSLSPGERATLSCRASESVSSSYFAWYQQKRGQAPRLLIYGASRRVTGIPDRFSGSGSGTDFTLTITRLEPEDFAVYYCQQYGGSPRSFGQGTKVEIKR
On to B11, for which the Kd stood at 24.8 nM, the koff was 0.0116 s⁻¹ and the kon was determined as 467000 M⁻¹ s⁻¹.

B12: M0123-E02 (Fab, V domains shown)
VH: EVQLLESGGGLVQPGGSLRLSCAASGFTFSHYRMDWVRQAPGKGLEWVSGIYPSGGHTNYADSVKGRFTISRDNSKNTLYLQMNSLRAEDTAVYYCARDRGWYGADYWGQGTLVTVSS
VL: AQSALTQPASVSGSPGQSITISCSGTSSDVGAYYHVSWYQQHPGKAPKLMIYDVSNRPSGVSNRFSGSKSGNTASLTISGLQAEDEADYYCSLYIGTSTPWVFGGGTKLTVLG
In the case of B12, the Kd stood at 26.8 nM, the koff amounted to 0.00613 s⁻¹ and the kon was determined as 229000 M⁻¹ s⁻¹.

B13: M0117-B07 (Fab, V domains shown)
VH: EVQLLESGGGLVQPGGSLRLSCAASGFTFSHYTMWWVRQAPGKGLEWVSRIWPSGGTTRYADSVKGRFTISRDNSKNTLYLQMNSLRAEDTAVYYCARGGSYLAFDIWGQGTMVTVSS
VL: DIQMTQSPATLSLSPGERATLSCRASQSVSSYLAWYQQKPGQAPRLLIYDASNRATGIPARFSGSGSGTDFTLTISSLEPEDFAVYYCQQRSNFGGGTKVEIKR
Turning to B13, the Kd is 22.8 nM, the koff turned out to be 0.00826 s⁻¹ and the kon amounted to 362000 M⁻¹ s⁻¹.

B14: M0126-H09 (Fab, V domains shown)
VH: EVQLLESGGGLVQPGGSLRLSCAASGFTFSNYTMMWVRQAPGKGLEWVSGIYPSGGQTAYADSVKGRFTISRDNSKNTLYLQMNSLRAEDTAVYYCARGGSWYAFDIWGQGTMVTVSS
VL: AQSVLTQDPAVSVALGQTVRFTCQGDSLRNYHPSWYQQKPRQAPVLVMFGRNNRPSGIPDRFSGSTSGGTASLTITATQADDEADYFCSSRDGSGNFLFGGGTKLTVLG
For B14, the Kd worked out at 23 nM, the koff was found to be 0.415 s⁻¹ and the kon was found to be 1.8e+07 M⁻¹ s⁻¹.

B15: M0114-E02 (Fab, V domains shown)
VH: EVQLLESGGGLVQPGGSLRLSCAASGFTFSHYKMMWVRQAPGKGLEWVSYIYPSGGWTGYADSVKGRFTISRDNSKNTLYLQMNSLRAEDTAVYYCARVGPWDAFDIWGQGTMVTVSS
VL: DIQMTQSPATLSLSPGERATLSCRASQSVGGYLAWYQQKPGQAPRLLIYDASKRATGIPARFSGSGSGTDFTLTISSLEPEDFAVYYCQQRSKWPPYTFGQGTKLEIKR
Take B15: the Kd came out at 23.2 nM, the koff is 0.00936 s⁻¹ and the kon amounted to 403000 M⁻¹ s⁻¹.

B16: M0122-A05 (Fab, V domains shown)
VH: EVQLLESGGGLVQPGGSLRLSCAASGFTFSHYPMHWVRQAPGKGLEWVSSIWPSGGHTSYADSVKGRFTISRDNSKNTLYLQMNSLRAEDTATYYCARLSQPIWGQGTLVTVSS
VL: DIQMTQSPSSFSASTGDRVTITCRASQSISRWLAWYQQKPGKAPKLLIYEASTLESGVPSTFSGSGSGTEFTLTISSLQPDDFATYYCQQYNSYPLTFGGGTKVEIKR
Take B16: the Kd came to 30.8 nM, the koff stood at 0.00453 s⁻¹ and the kon was determined as 147000 M⁻¹ s⁻¹.

B17: M0093-G09 (Fab, V domains shown)
VH: EVQLLESGGGLVQPGGSLRLSCAASGFTFSWYSMTWVRQAPGKGLEWVSSISPSGGATKYADSVKGRFTISRDNSKNTLYLQMNSLRAEDTAVYYCARGGAASLPFDYWGQGTLVTVSS
VL: DIQMTQSPSSLSASVGDRVTITCRASQSISSFLNWYQQKPGKAPKLLLMYAASSLQSGVPSRFSGSGSGTDFTLTISSLQPEDFATYYCQQSYSTPYTFGQGTKLEIKR
On to B17, for which the Kd was 23 nM, the koff was 0.0105 s⁻¹ and the kon stood at 458000 M⁻¹ s⁻¹.

B18: M0122-D01 (Fab, V domains shown)
VH: EVQLLESGGGLVQPGGSLRLSCAASGFTFSHYIMHWVRQAPGKGLEWVSGIYPSGGSTKYADSVKGRFTISRDNSKNTLYLQMNSLRAEDTAVYYCARALVGALDYWGQGTLVTVSS
VL: DIQMTQSPSSVSASVGDRVTITCRASQDIRTWLAWYQQKSGKAPKLLIYSSSSLQSGISSRFSGSGSGTDFTLTISNLQPEDSAIYYCQQATTFPWTFGQGTKVEIKR
On to B18, for which the Kd worked out at 20.8 nM, the koff stood at 0.00427 s⁻¹ and the kon is 205000 M⁻¹ s⁻¹.

B19: M0114-F04 (Fab, V domains shown)
VH: EVQLLESGGGLVQPGGSLRLSCAASGFTFSHYYMAWVRQAPGKGLEWVSYISPSGGSTKYADSVKGRFTISRDNSKNTLYLQMNSLRAEDTAMYYCARGGGTGTFDIWGQGTMVTVSS
VL: AQSELTQPASVSGSPGQSIAISCTGTSSDIGAYPFVSWYQQHPGKAPKLLIYGVTTRPFGVSDRFSGSKSGSTASLTISGLQAEDEADYYCSSYAGGRNLPYVFGTGTTVTVLG
Turning to B19, the Kd was found to be 30.7 nM, the koff stood at 0.0107 s⁻¹ and the on-rate (kon) amounted to 348000 M⁻¹ s⁻¹.
